From patent US20120277281A1, “POLYNUCLEOTIDES FOR MEDICAL USE” (MAX-DELBRÜCK-CENTRUM FÜR MOLEKULARE MEDIZIN, priority 2009, published 2012)

Assays:
[1] = test system: L540Cy cells; test: [3H]-thymidine incorporation in L540Cy cells; type: cell-based, human; conditions: 1% FCS, 48 h
Procedure: FIG. 3. HRS cells depend on CSF1R activity. (A) L540Cy cells were left untreated (−) or treated with the indicated amounts rhCSF-1 (closed bars) or the respective control (open bars) under serum reduced conditions (1% FCS). After 48 hours, cells were pulsed with 1 μCi [^3H]-thymidine per well for a further 20 hours, and [^3H]-thymidine incorporation was determined cpm, counts per minute. Data are represented as mean±SD. (3A) [^3H]-thymidine incorporation in L540Cy cells left untreated (−) or treated with the indicated amounts of rhCSF-1 (black bars) or water control (open bars) under serum-reduced conditions (1% FCS) determined after 48 h. Data are represented as means±s.d. […] After 24 hours, cells were pulsed with [^3H]-thymidine incorporation and analyzed as described in (A). […] CSF1R tyrosine phosphorylation was analyzed as described in FIG. 1F. […]
DNA synthesis was determined by [^3H]-thymidine incorporation assays using standard protocols. The percentage of viable and apoptotic cells was determined by annexin V-FITC/propidium iodide (PI) double-staining (Bender MedSystems) and subsequent FACS analysis.
We determined DNA synthesis by [^3H]-thymidine incorporation assays using standard protocols. In case of L540Cy cells (FIG. 1d), after 48 hours, cells were pulsed with 1 μCi [^3H]-thymidine per well for a further 20 hours, and [^3H]-thymidine incorporation was determined. […]

[2] = molecular target: T1, CSF1R (Homo sapiens, UniProt P07333); test: CSF1R tyrosine phosphorylation in L540Cy cells (CSF1R IP, p-Tyr western blot); type: cell-based; conditions: L540Cy cells stimulated with rhCSF-1
T1 construct: endogenous in cells; host or cells: L540Cy (Hodgkin/Reed-Sternberg cell line)
T1 sequence (P07333 20-972): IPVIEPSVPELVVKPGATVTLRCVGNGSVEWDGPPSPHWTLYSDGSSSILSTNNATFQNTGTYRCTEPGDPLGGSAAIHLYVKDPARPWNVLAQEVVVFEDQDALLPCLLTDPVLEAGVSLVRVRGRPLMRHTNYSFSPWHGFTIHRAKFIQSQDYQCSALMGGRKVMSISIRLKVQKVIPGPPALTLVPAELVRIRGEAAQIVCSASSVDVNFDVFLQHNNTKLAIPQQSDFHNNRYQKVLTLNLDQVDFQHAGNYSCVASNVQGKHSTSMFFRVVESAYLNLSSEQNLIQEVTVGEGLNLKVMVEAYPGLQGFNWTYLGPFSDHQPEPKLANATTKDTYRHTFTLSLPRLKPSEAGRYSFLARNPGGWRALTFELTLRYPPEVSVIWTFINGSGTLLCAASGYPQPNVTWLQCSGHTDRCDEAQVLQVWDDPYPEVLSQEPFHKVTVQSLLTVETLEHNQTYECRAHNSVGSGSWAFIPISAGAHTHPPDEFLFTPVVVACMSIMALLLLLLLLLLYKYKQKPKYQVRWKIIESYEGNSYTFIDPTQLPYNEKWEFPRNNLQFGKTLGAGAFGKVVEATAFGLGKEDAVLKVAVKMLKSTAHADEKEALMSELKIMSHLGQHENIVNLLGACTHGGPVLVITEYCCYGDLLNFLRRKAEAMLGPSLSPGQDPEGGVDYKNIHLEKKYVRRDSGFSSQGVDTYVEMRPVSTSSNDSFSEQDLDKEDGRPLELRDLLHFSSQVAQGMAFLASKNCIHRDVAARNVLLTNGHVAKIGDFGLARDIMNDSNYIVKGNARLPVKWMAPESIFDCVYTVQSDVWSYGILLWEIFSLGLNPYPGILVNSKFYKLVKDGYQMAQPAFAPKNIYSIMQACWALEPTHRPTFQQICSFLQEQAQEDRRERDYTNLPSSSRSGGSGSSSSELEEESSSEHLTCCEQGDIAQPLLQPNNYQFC
Procedure: FIG. 1. Lineage-inappropriate expression of functional CSF1R and CSF-1 in Hodgkin lymphoma cells. Analysis of CSF1R and CSF-1 protein expression and of CSF1R:Fc functionality. (A) Analysis of CSF1R and CSF1 mRNA expression by RT-PCR in Hodgkin and non-Hodgkin cell lines. Expression of GAPDH was analyzed as a control. (1a) Analysis of CSF1R and CSF1 mRNA expression by RT-PCR in Hodgkin's and non-Hodgkin's cell lines. GAPDH expression was analyzed as a control. One representative of four independent experiments is shown. (B, C) Analysis of CSF1R (B) and CSF-1 (C) protein expression in various cell lines by extracellular and intracellular flow cytometry, respectively. IC, isotype control. (D) Supernatants of various cell lines were analyzed by a CSF-1-specific ELISA. […] CSF1R tyrosine phosphorylation was detected by WB with an antibody recognizing phospho-tyrosine (p-Tyr; upper panel). […] CSF1R tyrosine phosphorylation was detected by western blotting with an antibody recognizing phosphotyrosine (p-Tyr; top). […]
FIG. 3. […] After 48 hours, cells were pulsed with 1 μCi [^3H]-thymidine per well for a further 20 hours, and [^3H]-thymidine incorporation was determined cpm, counts per minute. […] (3A) [^3H]-thymidine incorporation in L540Cy cells left untreated (−) or treated with the indicated amounts of rhCSF-1 (black bars) or water control (open bars) under serum-reduced conditions (1% FCS) determined after 48 h. […]

CSF1R tyrosine phosphorylation following stimulation [2]: rapid increase
B1: rhCSF-1: recombinant human CSF-1 (216-MC, R&D Systems) (protein)
chain: EEVSEYCSHMIGSGHLQSLQRLIDSQMETSCQITFEFVDQEQLKDPVCYLKKAFLLVQDIMEDTMRFRDNTPNAIAIVQLQELSLRLKSCFTKDYEEHDKACVRTFYETPLQLLEKVKNVFNETKNLLDKDWNIFSKNCNNSFAECSSQDVVTKPDCN
proliferation ([3H]-thymidine incorporation) [1]: induced proliferation in a dose-dependent manner
